In article PMC8294578 one finds EC50 of inhibition of lectin pathway activation in human serum (mannan-coated wells, ELISA, C4b deposition), EC50 of inhibition of MBL deposition on mannan-coated wells from human serum (ELISA, anti-MBL antibody) and decrease of prothrombinase activity in the FV(a) inhibition assay (1/1000 diluted human plasma, 20 pM FXa, 100 nM peptide) data, which are given here for three molecules.

Experiment [1] addresses mannan-binding lectin (MBL) (human (endogenous in human serum)) (UniProt P11226).
Sequence of UniProt P11226 (P11226 21-248): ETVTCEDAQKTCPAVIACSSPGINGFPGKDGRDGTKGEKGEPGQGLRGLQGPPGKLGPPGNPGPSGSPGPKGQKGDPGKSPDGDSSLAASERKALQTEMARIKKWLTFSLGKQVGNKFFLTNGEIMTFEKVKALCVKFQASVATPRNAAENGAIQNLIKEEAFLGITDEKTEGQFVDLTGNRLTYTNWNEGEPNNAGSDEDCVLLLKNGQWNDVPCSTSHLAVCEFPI
The target is the same in experiment [2]. This is another data set of the same source.
Experiment [3] has as its target factor V (FV) (human (endogenous in human plasma)).
Experiment [4] concerns the target mannan binding lectin-associated serine proteases (MASPs) (human (endogenous in human serum)).

The molecule “tick salivary lectin pathway inhibitor (TSLPI) from Ixodes scapularis (natural protein)” gave an EC50 of inhibition of lectin pathway activation in human serum (mannan-coated wells, ELISA, C4b deposition) in experiment [1] of 25 µM. Besides, in experiment [2], the EC50 of inhibition of MBL deposition on mannan-coated wells from human serum (ELISA, anti-MBL antibody) worked out at 90 µM.
“D70-L104 Salp14 (from UniProt Q95WY7 91-125) (peptide)” displayed a decrease of prothrombinase activity in the FV(a) inhibition assay (1/1000 diluted human plasma, 20 pM FXa, 100 nM peptide) in experiment [3] of 40 % decrease. This molecule gave an EC50 of inhibition of lectin pathway activation in human serum (mannan-coated wells, ELISA, C4b deposition) in experiment [4] of 17 µM.

B1: BaSO4-adsorbing protein 1 (BSAP1) from Ornithodoros savignyi (natural protein)
chain: MDSEFPCPRKQQPAGNSECSYYCEMNGQWKLGKFQNGARCDYNAVKDGVCNEGLCYASGDSASNTQNQGGSRRQENEDQGDDEWDRK
Take B1: the EC50 of inhibition of lectin pathway activation in human serum (mannan-coated wells, ELISA, C4b deposition) in experiment [1] came to 8 µM. The same molecule registered an EC50 of inhibition of MBL deposition on mannan-coated wells from human serum (ELISA, anti-MBL antibody) in experiment [2] of 26 µM.
